Experimental data from publication PMC7440162 (Cell, 2020).

T1: PRTG ECD-Fc (human, UniProt Q2VWP7 36-949)
T1 sequence: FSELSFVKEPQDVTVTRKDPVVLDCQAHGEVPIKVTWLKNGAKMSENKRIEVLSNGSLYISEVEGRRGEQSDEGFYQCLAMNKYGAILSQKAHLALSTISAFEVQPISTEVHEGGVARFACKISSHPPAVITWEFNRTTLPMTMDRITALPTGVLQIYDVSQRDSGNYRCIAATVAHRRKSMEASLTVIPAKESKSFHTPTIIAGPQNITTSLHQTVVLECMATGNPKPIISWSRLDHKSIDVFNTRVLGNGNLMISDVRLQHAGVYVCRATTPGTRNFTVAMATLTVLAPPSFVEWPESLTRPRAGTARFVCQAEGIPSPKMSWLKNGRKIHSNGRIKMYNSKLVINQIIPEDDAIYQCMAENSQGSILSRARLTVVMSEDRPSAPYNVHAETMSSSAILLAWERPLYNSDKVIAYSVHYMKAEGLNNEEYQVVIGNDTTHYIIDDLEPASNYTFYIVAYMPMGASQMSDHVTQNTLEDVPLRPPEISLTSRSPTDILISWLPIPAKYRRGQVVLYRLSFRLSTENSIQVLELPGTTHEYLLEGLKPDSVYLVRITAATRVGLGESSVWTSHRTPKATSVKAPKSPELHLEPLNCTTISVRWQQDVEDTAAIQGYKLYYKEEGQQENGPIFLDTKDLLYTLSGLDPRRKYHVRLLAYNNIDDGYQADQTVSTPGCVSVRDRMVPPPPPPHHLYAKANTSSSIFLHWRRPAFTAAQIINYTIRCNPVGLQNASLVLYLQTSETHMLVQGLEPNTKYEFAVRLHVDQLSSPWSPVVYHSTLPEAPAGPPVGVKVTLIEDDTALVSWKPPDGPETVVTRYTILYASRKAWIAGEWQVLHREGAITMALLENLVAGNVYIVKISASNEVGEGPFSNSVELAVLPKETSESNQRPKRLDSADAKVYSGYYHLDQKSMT

T2: human ISLR2 ECD-Fc (human, UniProt Q6UXK2 19-589, biotin on the AviTag (as SPR ligand))
T2 sequence: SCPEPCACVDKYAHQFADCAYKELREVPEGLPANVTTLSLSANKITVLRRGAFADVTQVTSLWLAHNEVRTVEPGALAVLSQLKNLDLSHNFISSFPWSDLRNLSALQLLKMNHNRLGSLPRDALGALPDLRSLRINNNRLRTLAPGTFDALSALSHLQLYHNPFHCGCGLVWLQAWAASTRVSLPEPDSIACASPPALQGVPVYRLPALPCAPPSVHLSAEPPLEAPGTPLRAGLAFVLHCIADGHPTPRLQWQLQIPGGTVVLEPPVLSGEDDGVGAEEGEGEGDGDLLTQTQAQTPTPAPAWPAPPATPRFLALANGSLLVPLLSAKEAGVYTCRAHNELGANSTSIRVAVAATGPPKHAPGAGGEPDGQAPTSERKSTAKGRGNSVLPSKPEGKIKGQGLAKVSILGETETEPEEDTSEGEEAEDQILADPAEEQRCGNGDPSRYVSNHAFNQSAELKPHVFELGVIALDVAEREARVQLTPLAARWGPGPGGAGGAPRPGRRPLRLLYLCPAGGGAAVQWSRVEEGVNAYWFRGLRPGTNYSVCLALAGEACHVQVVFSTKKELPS

T3: IL-6Rα ECD-Fc (human, UniProt P08887 20-365, biotin on the AviTag (as SPR ligand))
T3 sequence: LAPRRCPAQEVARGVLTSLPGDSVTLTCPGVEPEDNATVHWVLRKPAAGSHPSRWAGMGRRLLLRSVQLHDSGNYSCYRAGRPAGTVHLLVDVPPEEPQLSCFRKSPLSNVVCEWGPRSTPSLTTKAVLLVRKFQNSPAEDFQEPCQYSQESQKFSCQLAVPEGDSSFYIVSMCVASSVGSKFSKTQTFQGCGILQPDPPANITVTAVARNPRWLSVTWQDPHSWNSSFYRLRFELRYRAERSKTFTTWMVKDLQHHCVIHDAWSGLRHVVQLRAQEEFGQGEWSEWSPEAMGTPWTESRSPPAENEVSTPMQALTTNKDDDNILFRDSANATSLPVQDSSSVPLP

T4: TIE1 ECD-Fc (human, UniProt P35590 22-759, biotin on the AviTag (as SPR ligand))
T4 sequence: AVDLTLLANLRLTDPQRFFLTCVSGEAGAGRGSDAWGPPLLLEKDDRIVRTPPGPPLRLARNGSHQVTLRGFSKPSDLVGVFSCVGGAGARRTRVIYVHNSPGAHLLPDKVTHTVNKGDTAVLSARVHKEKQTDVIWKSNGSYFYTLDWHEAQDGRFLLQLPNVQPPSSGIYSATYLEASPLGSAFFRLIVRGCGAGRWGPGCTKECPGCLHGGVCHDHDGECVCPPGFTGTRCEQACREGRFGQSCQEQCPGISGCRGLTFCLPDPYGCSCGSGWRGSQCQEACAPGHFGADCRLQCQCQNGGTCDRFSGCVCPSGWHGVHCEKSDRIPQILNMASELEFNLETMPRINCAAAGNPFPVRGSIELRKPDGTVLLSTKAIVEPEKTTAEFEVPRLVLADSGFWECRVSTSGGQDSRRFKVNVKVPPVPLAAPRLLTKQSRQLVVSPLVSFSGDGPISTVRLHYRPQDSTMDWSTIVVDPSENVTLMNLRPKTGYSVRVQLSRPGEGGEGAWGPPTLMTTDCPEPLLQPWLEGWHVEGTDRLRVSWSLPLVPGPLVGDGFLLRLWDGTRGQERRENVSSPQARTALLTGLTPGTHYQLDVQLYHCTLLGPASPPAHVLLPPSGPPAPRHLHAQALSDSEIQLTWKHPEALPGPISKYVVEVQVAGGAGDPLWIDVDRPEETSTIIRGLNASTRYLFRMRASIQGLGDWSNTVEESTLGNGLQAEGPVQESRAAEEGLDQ

T5: PTPRS ECD-Fc (human, UniProt Q13332 30-1282)
T5 sequence: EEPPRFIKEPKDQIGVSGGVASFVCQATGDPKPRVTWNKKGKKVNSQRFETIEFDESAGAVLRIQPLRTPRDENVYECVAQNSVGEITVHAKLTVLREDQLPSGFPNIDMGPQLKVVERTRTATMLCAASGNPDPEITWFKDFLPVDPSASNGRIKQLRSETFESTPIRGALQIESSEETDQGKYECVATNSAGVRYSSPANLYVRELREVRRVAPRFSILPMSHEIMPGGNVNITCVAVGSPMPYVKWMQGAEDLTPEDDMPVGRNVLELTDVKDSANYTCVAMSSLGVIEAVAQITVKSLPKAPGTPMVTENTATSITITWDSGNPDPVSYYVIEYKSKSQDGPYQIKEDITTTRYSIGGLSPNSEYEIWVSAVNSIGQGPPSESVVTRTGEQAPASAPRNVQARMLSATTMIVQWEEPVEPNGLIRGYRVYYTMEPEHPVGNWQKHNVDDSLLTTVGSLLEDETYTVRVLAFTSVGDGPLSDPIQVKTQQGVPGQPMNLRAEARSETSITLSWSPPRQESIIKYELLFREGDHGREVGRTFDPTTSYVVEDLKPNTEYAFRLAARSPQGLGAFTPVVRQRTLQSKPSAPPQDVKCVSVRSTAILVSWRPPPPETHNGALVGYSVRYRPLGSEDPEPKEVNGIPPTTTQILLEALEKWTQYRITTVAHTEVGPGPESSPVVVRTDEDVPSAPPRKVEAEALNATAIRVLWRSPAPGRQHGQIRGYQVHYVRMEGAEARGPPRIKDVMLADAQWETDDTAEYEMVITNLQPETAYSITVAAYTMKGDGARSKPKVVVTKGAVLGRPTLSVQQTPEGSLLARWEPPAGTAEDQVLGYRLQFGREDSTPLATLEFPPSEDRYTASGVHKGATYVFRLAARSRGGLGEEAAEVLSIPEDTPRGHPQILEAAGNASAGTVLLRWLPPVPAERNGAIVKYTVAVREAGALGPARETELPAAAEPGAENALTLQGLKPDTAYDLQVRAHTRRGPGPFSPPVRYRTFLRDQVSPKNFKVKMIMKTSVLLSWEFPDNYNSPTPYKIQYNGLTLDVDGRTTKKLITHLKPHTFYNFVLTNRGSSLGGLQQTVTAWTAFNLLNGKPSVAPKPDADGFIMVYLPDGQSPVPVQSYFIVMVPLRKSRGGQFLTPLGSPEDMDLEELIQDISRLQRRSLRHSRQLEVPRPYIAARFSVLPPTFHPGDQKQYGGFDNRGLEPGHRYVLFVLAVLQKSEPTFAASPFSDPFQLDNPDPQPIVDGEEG

T6: FGFR3 ECD-Fc (human, UniProt P22607 23-375)
T6 sequence: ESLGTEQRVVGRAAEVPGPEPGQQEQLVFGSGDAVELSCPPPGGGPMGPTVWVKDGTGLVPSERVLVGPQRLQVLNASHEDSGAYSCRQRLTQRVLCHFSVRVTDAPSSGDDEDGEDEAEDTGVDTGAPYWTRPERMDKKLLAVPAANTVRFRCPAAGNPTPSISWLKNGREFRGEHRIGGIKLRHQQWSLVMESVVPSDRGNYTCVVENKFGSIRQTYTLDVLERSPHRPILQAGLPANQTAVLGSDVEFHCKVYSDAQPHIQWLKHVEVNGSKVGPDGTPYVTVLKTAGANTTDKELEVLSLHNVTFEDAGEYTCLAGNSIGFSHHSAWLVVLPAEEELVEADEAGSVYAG


Legend:
Assay in all cases: SPR
[1] = target: TIE2 ECD-Fc (human, UniProt Q02763 23-748, biotin on the AviTag (as SPR ligand))
Sequence of TIE2 ECD-Fc (Q02763 23-748): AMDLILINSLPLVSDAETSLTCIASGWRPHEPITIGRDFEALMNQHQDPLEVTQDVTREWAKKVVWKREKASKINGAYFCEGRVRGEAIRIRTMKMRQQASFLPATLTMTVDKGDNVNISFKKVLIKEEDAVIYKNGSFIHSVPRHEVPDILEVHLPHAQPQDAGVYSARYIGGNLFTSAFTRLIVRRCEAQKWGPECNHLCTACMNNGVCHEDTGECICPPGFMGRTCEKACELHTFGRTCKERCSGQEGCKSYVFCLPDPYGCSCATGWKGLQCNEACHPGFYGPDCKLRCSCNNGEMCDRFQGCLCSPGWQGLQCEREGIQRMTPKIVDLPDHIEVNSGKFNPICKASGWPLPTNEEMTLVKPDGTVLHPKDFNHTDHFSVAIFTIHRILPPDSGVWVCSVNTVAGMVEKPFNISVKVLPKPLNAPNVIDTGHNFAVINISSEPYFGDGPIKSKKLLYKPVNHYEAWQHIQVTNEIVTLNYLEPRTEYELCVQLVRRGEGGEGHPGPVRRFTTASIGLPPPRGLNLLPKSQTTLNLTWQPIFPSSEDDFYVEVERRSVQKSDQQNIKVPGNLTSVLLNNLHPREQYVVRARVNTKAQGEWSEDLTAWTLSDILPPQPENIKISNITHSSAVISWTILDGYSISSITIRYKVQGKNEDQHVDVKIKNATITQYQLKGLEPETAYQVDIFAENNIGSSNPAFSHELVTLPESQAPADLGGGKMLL

[2] = target: T1, PRTG ECD-Fc
[3] = target: T2, human ISLR2 ECD-Fc
[4] = target: T3, IL-6Rα ECD-Fc
[5] = target: T4, TIE1 ECD-Fc
[6] = target: T5, PTPRS ECD-Fc
[7] = target: T6, FGFR3 ECD-Fc

| binding result [2] | binding result [3] | binding result [4] | Binder | also measured |
| --- | --- | --- | --- | --- |
| – | – | – | Recombinant Human Angiopoietin-1 Protein (ligand) HIGCSNQRRSPENSGRRYNRIQHGQCAYTFILPEHDGNCRESTTDQYNTNALQRDAPHVEPDFSSQKLQHLEHVMENYTQWLQKLENYIVENMKSEMAQIQQNAVQNHTATMLEIGTSLLSQTAEQTRKLTDVETQVLNQTSRLEIQLLENSLSTYKLEKQLLQQTNEILKIHEKNSLLEHKILEMEGKHKEELDTLKEEKENLQGLVTRQTYIIQELEKQLNRATTNNSVLQKQQLELMDTVHNLVNLCTKEGVLLKGGKREEEKPFRDCADVYQAGFNKSGIYTIYINNMPEPKKVFCNMDVNGGGWTVIQHREDGSLDFQRGWKEYKMGFGNPSGEYWLGNEFIFAITSQRQYMLRIELMDWEGNRAYSQYDRFHIGNEKQNYRLYLKGHTGTAGKQSSLILHGADFSTKDADNDNCMCKCALMLTGGWWFDACGPSNLNGMFYTAGQNHGKLNGIKWHYFKGPSYSLRSTTMMIRPLDF | binding result [1]: binds |
| binds | binds | binds | IGFBP7-Fc (Fc fusion, biotin on the AviTag (as SPR ligand)) SSSDTCGPCEPASCPPLPPLGCLLGETRDACGCCPMCARGEGEPCGGGGAGRGYCAPGMECVKSRKRRKGKAGAAAGGPGVSGVCVCKSRYPVCGSDGTTYPSGCQLRAASQRAESRGEKAITQVSKGTCEQGPSIVTPPKDIWNVTGAQVYLSCEVIGIPTPVLIWNKVKRGHYGVQRTELLPGDRDNLAIQTRGGPEKHEVTGWVLVSPLSKEDAGEYECHASNSQGQASASAKITVVDALHEIPVKKGEGAEL | – |
| – | – | – | TrkA ECD-Fc (Fc fusion, biotin on the AviTag (in streptavidin-Alexa 647 tetramers)) AAPCPDACCPHGSSGLRCTRDGALDSLHHLPGAENLTELYIENQQHLQHLELRDLRGLGELRNLTIVKSGLRFVAPDAFHFTPRLSRLNLSFNALESLSWKTVQGLSLQELVLSGNPLHCSCALRWLQRWEEEGLGGVPEQKLQCHGQGPLAHMPNASCGVPTLKVQVPNASVDVGDDVLLRCQVEGRGLEQAGWILTELEQSATVMKSGGLPSLGLTLANVTSDLNRKNVTCWAENDVGRAEVSVQVNVSFPASVQLHTAVEMHHWCIPFSVDGQPAPSLRWLFNGSVLNETSFIFTEFLEPAANETVRHGCLRLNQPTHVNNGNYTLLAANPFGQASASIMAAFMDNPFEFNPEDPIPVSFSPVDTNSTSGDPVEKKDETPFGVSVAVG | binding result [5]: binds |
| binds | binds | binds | IGFBPL1-Fc (Fc fusion, biotin on the AviTag (as SPR ligand)) LGIRDVGGRRPKCGPCRPEGCPAPAPCPAPGISALDECGCCARCLGAEGASCGGRAGGRCGPGLVCASQAAGAAPEGTGLCVCAQRGTVCGSDGRSYPSVCALRLRARHTPRAHPGHLHKARDGPCEFAPVVVVPPRSVHNVTGAQVGLSCEVRAVPTPVITWRKVTKSPEGTQALEELPGDHVNIAVQVRGGPSDHEATAWILINPLRKEDEGVYQCHAANMVGEAESHSTVTVLDLSKYRSFHFPAPDDRM | – |
| – | – | – | IL1RAPL2 ECD-Fc (Fc fusion, biotin on the AviTag (as SPR ligand)) TNLKMVSKRNSVDGCIDWSVDLKTYMALAGEPVRVKCALFYSYIRTNYSTAQSTGLRLMWYKNKGDLEEPIIFSEVRMSKEEDSIWFHSAEAQDSGFYTCVLRNSTYCMKVSMSLTVAENESGLCYNSRIRYLEKSEVTKRKEISCPDMDDFKKSDQEPDVVWYKECKPKMWRSIIIQKGNALLIQEVQEEDGGNYTCELKYEGKLVRRTTELKVTALLTDKPPKPLFPMENQPSVIDVQLGKPLNIPCKAFFGFSGESGPMIYWMKGEKFIEELAGHIREGEIRLLKEHLGEKEVELALIFDSVVEADLANYTCHVENRNGRKHASVLLRKKDLIYK | binding result [6]: binds; binding result [7]: binds |
